Experiment [1] concerns tyrosine hydroxylase (TH). Put plainly: TH phosphorylation in N27 cells (Western blot, immunofluorescence). It is filed as cell-based, rat. As to the method:
(§1) PC12 cells, differentiated N27 dopaminergic cells and primary mesencephalic neurons were exposed to 1-10 μM rottlerin for the duration of the experiment. DMSO (0.01%) was used as vehicle control. PKCδ-DN- and Lac Z-expressing N27 cells were only treated with 0.01% DMSO. […] Untreated or vehicle treated cells were used as control samples.
Cell and brain lysates containing equal amounts of protein were loaded in each lane and separated on a 10-12% SDS-PAGE gel as described previously (Kaul et al., 2003). After the separation, proteins were transferred to nitrocellulose membrane, and nonspecific binding sites were blocked by treating with 5% nonfat dry milk powder. The membranes were then treated with primary antibodies directed against PKCδ (rabbit polyclonal or mouse monoclonal, 1:2000 dilution), TH (rabbit polyclonal or mouse monoclonal, 1:1000), phospho TH-ser40 (rabbit polyclonal, 1:1000), phospho TH-ser31 TH (rabbit polyclonal, 1:1000), or PP2A (mouse monoclonal, 1:1000). The primary antibody treatments were followed by treatment with secondary HRP-conjugated anti-rabbit or anti-mouse IgG (1:2000) for 1 hr at RT. Secondary antibody-bound proteins were detected using Amersham's ECL chemiluminescence kit. To confirm equal protein loading, blots were reprobed with a β-actin antibody (1:5000 dilution). Western blot images were captured with a Kodak 2000 MM imaging system and data were analyzed using 1D Kodak imaging analysis software.
Immunostaining of PKCδ, TH, Ser40 P-TH and Ser31 P-TH was performed in PC12, N27 and primary mesencephalic neurons. Cells were grown on poly-L-Lysine-coated glass cover slips. After treatment, the cells were fixed with 4% paraformaldehyde and processed for immunohistochemical staining. […] Then the coverslips containing stained cells were washed with PBS, mounted on a slide, and viewed under a Nikon inverted fluorescence microscope (Model TE-2000U); images were captured with a SPOT digital camera (Diagnostic Instruments, Sterling Heights, Mich.).
For orientation: Immunoblotting shows a protein as a band on a membrane.

For experiment [2], the system named is PP2A. The experiment in a line: PP2A phosphatase activity in N27 cells (Serine/Threonine phosphatase assay kit). It is filed as cell-based, rat. The note with it: rottlerin vs DMSO, PKCδ-DN vs LacZ. As to the method:
To determine PP2A phosphatase activity, we used the Serine/Threonine phosphatase assay kit from Promega. Briefly, N27 cells and substantia nigral tissue from mouse brain were homogenized in lysis buffer (25 mM Tris-HCl, 10 mM β-mercaptoethanol, 2 mM EDTA, protease inhibitor) supplied with the kit. After centrifugation, the supernatants were used for the assay. PP2A activity was determined by measuring the amount of free phosphate generated in a reaction by measuring the absorbance of a molybdate:malachite green: phosphate complex at 600 nm using the Spectramax plate reader (Molecular Devices). The effective range for the detection of phosphate released in this assay is 100-4,000 pmol of phosphate.

In experiment [3] the test system is tyrosine hydroxylase (TH). Put plainly: TH activity (DOPA levels after NSD-1015) in N27 cells. The note with it: 2 mM NSD-1015, rottlerin 3 hr vs DMSO, PKCδ-DN vs LacZ. Format: cell-based, rat. The protocol: Plasmid pPKCδ^K376R-V5 encodes the loss of function PKCδ-V5 epitope tagged mutant protein; K376R refers to the mutation of the lysine residue at position 376 to arginine in the catalytic site resulting in inactivation of the kinase. Plasmid pLacZ-V5 encodes the β-galactosidase protein alone with a V5-epitope and is used as a vector control. N27 cells stably expressing PKCδ^K376R-V5 (herein referred to as PKCδ-DN cells) and LacZ alone-expressing cells (LacZ cells) were cultured as described previously (Kitazawa et al., 2005). PKCδ-DN or LacZ expressing N27 cells were identified by immunostaining of the C-terminal V5 epitope on expressed proteins and were differentiated with cAMP analogs (e.g. dibutyral cAMP) prior to experiments. PKCδ-DN and LacZ were also transiently expressed in mouse primary mesencephalic neurons using an AMAXA® Nucleofector™ kit (AMAXA GmbH, Germany). As described above, primary mesencephalic neurons were prepared from the midbrain of 16-18-day-old mice embryos. After digestion with trypsin-EDTA-HBSS, the primary neurons were homogenously resuspended with transfection buffer provided with the kit to a final concentration of 4-5×10^6 neurons/100 μl and mixed with 1 μg plasmid DNA encoding either PKCδ-DN-V5 or LacZ-V5. […] Transfection efficiency was >75% as determined by immunostaining of V5-expression. […]

The test system of experiment [4] is N27 cells. Put plainly: Cellular DA and DOPAC levels in N27 cells (HPLC-EC). It is filed as cell-based, rat. The note with it: N27 cells; rottlerin vs vehicle, PKCδ-DN vs LacZ. The protocol:
as §1
DA and DOPAC levels in PC12, N27 cells and in brain striatal tissues were determined by high-performance liquid chromatography with electrochemical detection (HPLC-EC); samples were prepared as described previously (Kitazawa et al., 2001). The DA and DOPAC levels were measured as pg/mg protein and expressed as percent of control.

The subject of experiment [5] is tyrosine hydroxylase (TH). The experiment in a line: TH-ser40 phosphorylation in primary mesencephalic neurons (immunofluorescence). Format: cell-based, mouse. The note with it: primary neurons, 24 hr post-transfection. As to the method: PC12 and N27 cells were cultured as described earlier (Anantharam et al., 2002; Kaul et al., 2003). Briefly, cells were grown in RPMI 1640 medium containing 10% fetal bovine serum, 2 mM L-glutamine, 50 units of penicillin, and 50 μg/ml streptomycin. Cells were maintained in a humidified atmosphere of 5% CO2 at 37° C. N27 cells were differentiated with 2 mM dibutyryl cAMP for 3-5 days and then used for experiments described below. Primary mesencephalic neuronal cultures were prepared from the ventral mesencephalon of gestational 16-18-day-old mice embryos as described previously (Yang et al., 2004). Mesencephalic tissues were dissected and maintained in ice-cold Ca^2+-free HESS and then dissociated in HBSS solution containing trypsin-EDTA (0.25%) for 20 min at 37° C. The dissociated cells were then plated at equal density (0.5×10^6 cells) in 30-mm-diameter tissue culture wells precoated with poly-L-lysine (1 mg/ml). […]
Plasmid pPKCδ^K376R-V5 encodes the loss of function PKCδ-V5 epitope tagged mutant protein; K376R refers to the mutation of the lysine residue at position 376 to arginine in the catalytic site resulting in inactivation of the kinase. […] Transfection efficiency was >75% as determined by immunostaining of V5-expression. […]

B1: PKCδ-DN: loss of function PKCδ-V5 epitope tagged mutant protein, lysine 376 to arginine, kinase inactive (protein, UniProt P28867 1-674, looked up, variant K376R)
chain: MAPFLRISFNSYELGSLQVEDEASQPFCAVKMKEALSTERGKTLVQKKPTMYPEWKTTFDAHIYEGRVIQIVLMRAAEDPVSEVTVGVSVLAERCKKNNGKAEFWLDLQPQAKVLMCVQYFLEDGDCKQSMRSEEEAKFPTMNRRGAIKQAKIHYIKNHEFIATFFGQPTFCSVCKEFVWGLNKQGYKCRQCNAAIHKKCIDKIIGRCTGTATNSRDTIFQKERFNIDMPHRFKVYNYMSPTFCDHCGSLLWGLVKQGLKCEDCGMNVHHKCREKVANLCGINQKLLAEALNQVTQRSSRKLDTTESVGIYQGFEKKPEVSGSDILDNNGTYGKIWEGSTRCTLENFTFQKVLGKGSFGKVLLAELKGKDKYFAIRCLKKDVVLIDDDVECTMVEKRVLALAWESPFLTHLICTFQTKDHLFFVMEFLNGGDLMFHIQDKGRFELYRATFYAAEIICGLQFLHSKGIIYRDLKLDNVMLDRDGHIKIADFGMCKENIFGEGRASTFCGTPDYIAPEILQGLKYSFSVDWWSFGVLLYEMLIGQSPFHGDDEDELFESIRVDTPHYPRWITKESKDIMEKLFERDPDKRLGVTGNIRIHPFFKTINWSLLEKRKVEPPFKPKVKSPSDYSNFDPEFLNEKPQLSFSDKNLIDSMDQEAFHGFSFVNPKFEQFLDI
modifications: full-length V5 epitope tag
As to B1, in experiment [1] (N27 cells), the THser31 phosphorylation level entry is “unaltered” and the “level of total TH” value was “unaltered”. Further, in experiment [1] (N27 cells stably expressing PKCδ-DN), the “fluorescent intensity of TH-ser40 immunostaining, increase versus Lac-Z” value was found to be 2.5 fold. The “reduction of PP2A activity” value in experiment [2] was 56%. This molecule showed a TH activity in experiment [3] of 2539±307.3 pg DOPA/10^6 cells/hr. In addition, in experiment [4], the DA level came to 4806±373 pg/μg protein, the DOPAC levels came to 2783±968.31 pg/μg protein, the “increase in DA level” value was found to be 4 fold and the “increase in DOPAC levels” value is reported as 3 fold. The “fluorescence of TH-ser40 immunostaining versus Lac-Z expressing neurons” value in experiment [5] is “about 2.5 times”.
